Experimental data reported in patent publication US20200338203A1 (Bicycle, published 2020).
Like-named read-outs stand apart in the source and are kept apart here. Numbered stars: 1 amine (or outer) side, 2 acyl side, 3 side chain; on linkers, the order of the positions; unused ones are H or OH. Bridge positions count the residues as written; N and C are the ends. Square brackets hold non-standard residues; d marks the D form. Ends that are not written are not given here. DM1 = thiol-containing maytansine derivative (cytotoxic agent); disulphide linker of formula (B) = not defined here; K(FI) = lysine carrying a fluorescein label (FI); 1Nal = N[C@@H](Cc1cccc2ccccc12)C(=O)O; TBMB = c1c(C[*:1])cc(C[*:3])cc1C[*:2]; Gly(cPent) = N[C@H](C(=O)O)C1CCCC1; hArg = N=C(N)NCCCC[C@H](N)C(=O)O; Tle = CC(C)(C)[C@H](N)C(=O)O; AF488 = AlexaFluor488 label; Aib = CC(C)(N)C(=O)O; βAla = NCCC(=O)O; Sar = CNCC(=O)O

Assays:
[1] = target: rat EphA2 (Rat, UniProt D3ZBN3 27-205); test: FP direct binding, selectivity
Protocol: (§1) The gain used for analysis was determined for each tracer at the end of the 60 minutes where there was no protein in the well. Data was analysed using Systat Sigmaplot version 12.0. mP values were fit to a user defined quadratic equation to generate a Kd value: f=ymin+(ymax−ymin)/Lig*((x+Lig+Kd)/2-sqrt((((x+Lig+Kd)/2)\hat{ }2)−(Lig*x))). “Lig” was a defined value of the concentration of tracer used.

[2] = target: T1, Human EphA1 (Human, UniProt P21709 26-547); test: FP direct binding, selectivity
T1 construct: extracellular domain; also called EphA1 (Ecto), Human
T1 sequence (looked up): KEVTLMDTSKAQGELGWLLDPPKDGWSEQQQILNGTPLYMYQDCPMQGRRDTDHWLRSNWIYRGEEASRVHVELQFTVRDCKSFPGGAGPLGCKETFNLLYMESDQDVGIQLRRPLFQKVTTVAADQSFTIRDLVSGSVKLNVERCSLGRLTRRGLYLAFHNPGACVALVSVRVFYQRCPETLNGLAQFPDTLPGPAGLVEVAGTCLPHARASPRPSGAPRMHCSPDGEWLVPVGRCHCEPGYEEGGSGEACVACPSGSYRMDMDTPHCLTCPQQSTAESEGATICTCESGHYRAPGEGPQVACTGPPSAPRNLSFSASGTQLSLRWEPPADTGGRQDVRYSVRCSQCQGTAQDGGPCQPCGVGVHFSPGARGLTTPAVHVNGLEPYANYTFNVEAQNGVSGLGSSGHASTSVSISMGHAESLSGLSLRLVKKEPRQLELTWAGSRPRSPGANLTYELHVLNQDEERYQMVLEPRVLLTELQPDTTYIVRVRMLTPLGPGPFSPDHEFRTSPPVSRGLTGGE
Protocol: as §1

[3] = target: T2, mouse EphA2 (Mouse, UniProt Q03145 26-538); test: FP direct binding, selectivity
T2 construct: extracellular domain; C-terminal polyHis; also called EphA2 (Ecto), Mouse
T2 sequence (Q03145 26-538): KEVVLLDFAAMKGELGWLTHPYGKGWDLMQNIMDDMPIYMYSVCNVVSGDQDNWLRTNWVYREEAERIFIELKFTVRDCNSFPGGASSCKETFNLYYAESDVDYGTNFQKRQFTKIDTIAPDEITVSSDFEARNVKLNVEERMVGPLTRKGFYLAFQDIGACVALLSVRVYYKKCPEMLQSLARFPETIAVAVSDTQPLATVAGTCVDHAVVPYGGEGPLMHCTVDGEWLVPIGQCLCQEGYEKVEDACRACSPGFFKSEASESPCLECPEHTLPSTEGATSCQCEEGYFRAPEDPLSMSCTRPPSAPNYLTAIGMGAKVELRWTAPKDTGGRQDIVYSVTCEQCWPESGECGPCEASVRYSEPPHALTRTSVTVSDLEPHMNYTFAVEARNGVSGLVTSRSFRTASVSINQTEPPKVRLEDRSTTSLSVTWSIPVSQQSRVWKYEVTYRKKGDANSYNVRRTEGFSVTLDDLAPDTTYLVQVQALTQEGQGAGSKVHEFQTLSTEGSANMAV
Protocol: as §1

[4] = target: T3, rat EphB1 (Rat, UniProt P09759 18-540); test: FP direct binding, selectivity
T3 construct: extracellular domain; also called EphB1 (Ecto), Rat
T3 sequence (looked up): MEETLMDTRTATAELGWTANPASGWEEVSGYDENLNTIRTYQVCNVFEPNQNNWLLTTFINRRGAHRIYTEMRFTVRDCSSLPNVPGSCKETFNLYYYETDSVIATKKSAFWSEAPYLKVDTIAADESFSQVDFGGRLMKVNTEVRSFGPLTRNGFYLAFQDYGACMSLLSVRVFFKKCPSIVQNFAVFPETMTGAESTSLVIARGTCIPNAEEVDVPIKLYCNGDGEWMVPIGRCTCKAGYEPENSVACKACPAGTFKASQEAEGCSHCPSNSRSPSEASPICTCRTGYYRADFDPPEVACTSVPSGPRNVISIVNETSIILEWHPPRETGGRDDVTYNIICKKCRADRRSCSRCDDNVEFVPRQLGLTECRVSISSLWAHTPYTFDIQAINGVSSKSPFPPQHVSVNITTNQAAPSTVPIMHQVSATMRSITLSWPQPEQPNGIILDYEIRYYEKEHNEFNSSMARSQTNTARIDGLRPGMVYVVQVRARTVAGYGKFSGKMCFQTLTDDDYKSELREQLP
Protocol: as §1

[5] = target: T4, Mouse EphA2 (Ecto) (Mouse, UniProt Q03145 26-538); test: FP direct binding
T4 construct: extracellular domain; not shown: Fc fusion or C-terminal polyHis
T4 sequence (Q03145 26-538): as the sequence (Q03145 26-538) above

[6] = target: T5, Human EphA2 (Ecto) (Human, UniProt P29317 24-537); test: FP direct binding
T5 construct: extracellular domain
T5 sequence (P29317 24-537): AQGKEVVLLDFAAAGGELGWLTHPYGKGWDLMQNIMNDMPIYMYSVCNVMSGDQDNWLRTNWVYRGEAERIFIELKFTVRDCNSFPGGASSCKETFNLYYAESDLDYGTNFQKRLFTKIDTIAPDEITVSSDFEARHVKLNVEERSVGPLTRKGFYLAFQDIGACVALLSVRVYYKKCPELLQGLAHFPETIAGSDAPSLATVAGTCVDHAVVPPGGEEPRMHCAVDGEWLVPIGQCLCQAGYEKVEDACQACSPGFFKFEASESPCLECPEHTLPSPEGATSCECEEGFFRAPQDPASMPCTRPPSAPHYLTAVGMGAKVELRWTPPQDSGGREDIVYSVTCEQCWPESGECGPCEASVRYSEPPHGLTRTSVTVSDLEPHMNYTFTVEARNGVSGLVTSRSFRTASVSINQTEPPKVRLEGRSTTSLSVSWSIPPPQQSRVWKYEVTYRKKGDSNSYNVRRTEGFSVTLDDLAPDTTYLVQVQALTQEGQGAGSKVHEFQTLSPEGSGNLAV

[7] = target: rat & mouse EphA4 (rat & mouse) (UniProt D3ZZK3); test: FP direct binding, selectivity
[8] = target: Human & mouse EphA3 (Human & mouse) (UniProt P29320); test: FP direct binding, selectivity
Human & mouse EphA3 (Human & mouse), sequence (P29320 21-541): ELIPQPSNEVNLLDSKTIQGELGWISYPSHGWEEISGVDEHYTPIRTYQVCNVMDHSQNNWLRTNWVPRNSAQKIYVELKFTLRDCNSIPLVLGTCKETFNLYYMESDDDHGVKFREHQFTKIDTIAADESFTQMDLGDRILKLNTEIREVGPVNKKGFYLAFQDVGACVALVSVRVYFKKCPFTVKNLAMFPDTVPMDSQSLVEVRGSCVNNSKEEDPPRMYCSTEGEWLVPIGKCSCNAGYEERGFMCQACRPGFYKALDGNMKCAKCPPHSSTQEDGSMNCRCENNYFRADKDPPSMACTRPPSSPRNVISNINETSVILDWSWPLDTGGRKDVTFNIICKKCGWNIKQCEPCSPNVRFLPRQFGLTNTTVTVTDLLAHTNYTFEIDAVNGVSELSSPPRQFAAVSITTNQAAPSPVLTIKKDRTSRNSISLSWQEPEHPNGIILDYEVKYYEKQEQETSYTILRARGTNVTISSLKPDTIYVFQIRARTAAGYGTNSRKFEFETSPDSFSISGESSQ

[9] = target: human EphA4 (Human) (UniProt P54764); test: FP direct binding, selectivity
human EphA4 (Human), sequence (P54764 20-547): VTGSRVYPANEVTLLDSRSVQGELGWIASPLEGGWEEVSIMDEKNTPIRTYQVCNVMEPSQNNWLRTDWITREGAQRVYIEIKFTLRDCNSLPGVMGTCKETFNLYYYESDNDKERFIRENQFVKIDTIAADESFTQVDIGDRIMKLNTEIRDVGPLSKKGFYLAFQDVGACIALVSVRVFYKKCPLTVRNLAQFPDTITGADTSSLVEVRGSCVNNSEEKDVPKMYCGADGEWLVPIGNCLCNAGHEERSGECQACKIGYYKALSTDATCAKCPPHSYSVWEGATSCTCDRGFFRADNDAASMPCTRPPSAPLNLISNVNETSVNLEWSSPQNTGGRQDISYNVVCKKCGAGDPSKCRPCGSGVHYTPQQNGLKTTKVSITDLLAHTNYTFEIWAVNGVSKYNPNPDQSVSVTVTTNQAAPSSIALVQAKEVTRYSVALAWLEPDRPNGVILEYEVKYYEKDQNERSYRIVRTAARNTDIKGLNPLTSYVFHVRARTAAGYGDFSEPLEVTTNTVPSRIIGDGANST

[10] = target: rat EphA3 (Rat) (UniProt O08680); test: FP direct binding, selectivity
rat EphA3 (Rat), sequence (O08680 21-541): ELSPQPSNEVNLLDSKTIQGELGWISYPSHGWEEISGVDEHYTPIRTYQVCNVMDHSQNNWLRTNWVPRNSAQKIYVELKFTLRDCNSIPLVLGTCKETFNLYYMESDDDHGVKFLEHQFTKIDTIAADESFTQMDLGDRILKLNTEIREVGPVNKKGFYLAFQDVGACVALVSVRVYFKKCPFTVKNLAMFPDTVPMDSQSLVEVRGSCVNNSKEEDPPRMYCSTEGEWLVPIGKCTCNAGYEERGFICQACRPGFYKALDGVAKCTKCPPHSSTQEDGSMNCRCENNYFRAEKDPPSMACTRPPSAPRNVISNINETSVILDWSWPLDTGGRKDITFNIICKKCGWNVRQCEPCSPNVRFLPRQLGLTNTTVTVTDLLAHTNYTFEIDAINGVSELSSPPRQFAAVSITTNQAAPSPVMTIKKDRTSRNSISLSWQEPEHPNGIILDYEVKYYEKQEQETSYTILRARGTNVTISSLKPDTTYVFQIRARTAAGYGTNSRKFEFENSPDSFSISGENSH

[11] = target: dog EphA2 (Dog); test: FP direct binding, selectivity
[12] = target: T5, Human EphA2 (Ecto); test: FP direct binding; remark: listed apart in the source
Protocol: as §1

[13] = target: T4, Mouse EphA2 (Ecto); test: FP direct binding; remark: listed apart in the source
Protocol: as §1

[14] = target: T6, Human EphA2 (Human, UniProt P29317 24-537); test: FP competition; competitor: fluorescent Compound 12
T6 construct: extracellular domain; also called EphA2 (Ecto), Human
T6 sequence (P29317 24-537): as the sequence (P29317 24-537) above
Protocol: (§2) Peptides without a fluorescent tag were tested in competition with a peptide with a fluorescent tag and a known Kd (Table 2). Peptides were diluted to an appropriate concentration in assay buffer as described in the direct binding assay with a maximum of 5% DMSO, then serially diluted 1 in 2. Five μL of diluted peptide was added to the plate followed by 10 μL of human or mouse EphA2 (Table 1) at a fixed concentration which was dependent on the fluorescent peptide used (Table 2), then 10 μL fluorescent peptide added. Measurements were conducted as for the direct binding assay, however the gain was determined prior to the first measurement.

[15] = target: T5, Human EphA2 (Ecto); test: FP competition; competitor Compound 1
Protocol: as §2

[16] = target: T5, Human EphA2 (Ecto); test: FP competition; competitor Compound 66
Protocol: as §2

[17] = target: T5, Human EphA2 (Ecto); test: FP competition; competitor Compound 12
Protocol: as §2

B1: Compound 145 (peptide)
peptide: {AF488-βAla}-[Sar][Sar][Sar][Sar][Sar][Sar][Sar][Sar][Sar][Sar]H[dD]VPCP[1Nal]G[Aib]F[1Nal]CP[Tle]NR[Aib][dD]C
modifications: linker 15-22-29 via TBMB
[1]
  Kd: 0.001 µM
[2]
  Kd: 7.26 µM
[3]
  Kd: 0.0038 µM
[4]
  Kd: 5.42 µM
[5]
  Kd: 0.0038 µM
[6]
  Kd: 0.00217 µM
[7]
  Kd: 2.54 µM
[8]
  Kd: 0.129 µM
[9]
  Kd: 1.5 µM
[10]
  Kd: 0.297 µM
[11]
  Kd: 0.00499 µM

B2: Compound 147 (peptide)
peptide: {AF488-βAla}-[Sar][Sar][Sar][Sar][Sar][Sar][Sar][Sar][Sar][Sar]H[dD][Gly(cPent)]PCP[1Nal]G[Aib]F[1Nal]CP[Tle]N[hArg]P[dD]C
modifications: linker 15-22-29 via TBMB
[1]
  Kd: 0.00115 µM
[2]
  Kd: 1.22 µM
[3]
  Kd: 0.00344 µM
[5]
  Kd: 0.00344 µM
[6]
  Kd: 0.00107 µM
[7]
  Kd: 1000 µM
[8]
  Kd: 0.0825 µM
[9]
  Kd: 7440 µM
[10]
  Kd: 0.221 µM
[11]
  Kd: 0.00358 µM

B3: Compound 6 (peptide)
peptide: ACMNDWLCQLGWTCA[Sar][Sar][Sar][Sar][Sar][Sar]-{K(FI)}
modifications: linker 2-8-14 via TBMB
[12]
  Kd: 0.00425 µM

B4: Compound 139 (peptide)
peptide: {AF488-βAla}-[Sar][Sar][Sar][Sar][Sar][Sar][Sar][Sar][Sar][Sar]H[dD]VPCPWGPFWCPVNRPGCA
modifications: linker 15-22-29 via TBMB
[13]
  Kd: 0.0008 µM
[12]
  Kd: 0.00031 µM

B5: BDC-5 (peptide)
peptide: {DM1-disulphide linker of formula (B)-βAla}-[Sar][Sar][Sar][Sar][Sar][Sar][Sar][Sar][Sar][Sar]ACPWAPFWCAVNRPGC
modifications: linker 12-19-26 via TBMB; reading uncertain
notes: DM1 conjugate; also called Bicyclic Peptide Drug Conjugate BDC-5; Compound 303, Formula (B)
[14]
  Ki: > 1 µM

B6: Compound 32 (peptide)
peptide: ACRNIPTMCPFGPVWCA
modifications: linker 2-9-16 via TBMB
[15]
  Ki: 0.0834 µM

B7: Compound 41 (peptide)
peptide: ACPWGPAWCPVHGKTCA
modifications: linker 2-9-16 via TBMB
[15]
  Ki: 0.263 µM

B8: Compound 45 (peptide)
peptide: ACPWGPAWCPVNRPGCAGAAA
modifications: linker 2-9-16 via TBMB
[16]
  Ki: 0.117 µM
[17]
  Ki: 0.0992 µM

B9: Compound 63 (peptide)
peptide: ACVPQGIWCALQFEPCA
modifications: linker 2-9-16 via TBMB
[16]
  Ki: 0.0825 µM
[17]
  Ki: 0.0922 µM
[15]
  Ki: 0.144 µM

B10: Compound 64 (peptide)
peptide: ACTTGSIWCALQFEPCA
modifications: linker 2-9-16 via TBMB
[16]
  Ki: 0.0634 µM
[17]
  Ki: 0.41 µM
